Assay results from patent US8017326B2, “Methods of modulating cell death based on the Bit-1/AES regulatory pathway” (Sanford-Burnham Medical Research Institute, priority 2002, dated 2011).

Tests used:
[1] = target: T1, AES (Homo sapiens, UniProt Q08117); test: Co-immunoprecipitation of exogenously expressed tagged Bit1 and AES; format: binding; conditions: immunoprecipitated with anti-flag, immunoblotted with anti-myc
T1 construct: expressed in transfected cells; host or cells: yeast strain AH109
T1 sequence (Q08117 1-197): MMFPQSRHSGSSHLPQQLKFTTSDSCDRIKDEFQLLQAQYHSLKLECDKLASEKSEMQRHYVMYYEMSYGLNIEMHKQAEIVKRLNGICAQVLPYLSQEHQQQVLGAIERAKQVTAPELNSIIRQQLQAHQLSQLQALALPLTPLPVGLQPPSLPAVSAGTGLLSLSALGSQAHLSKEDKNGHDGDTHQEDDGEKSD
Method: Tagged Bit1 and AES were transfected into cells, and cell extracts were immunoprecipitated with anti-flag and immunoblotted with anti-myc. Equal loading of the samples was confirmed by immunoblotting of the whole extract with anti-flag.
Immunoprecipitation and immunoblotting were performed essentially as follows. Cells were transfected with full-length clones for Bit1 and AES, which were obtained by PCR from EST clones using Pfu enzyme (Stratagene; La Jolla, Calif.) and cloned into pCMV-Myc (Clontech) or pCMV-flag (Sigma; St. Louis, Mo.). After 24 to 48 hours, cells were harvested in ice-cold NP-40 lysis buffer (1% NP-40; 20 mM Tris-HCl, pH 7.4; 150 mM NaCl; 10% glycerol, 2 mM sodium vanadate; 1 mM phenylmethyl sulfonylfluoride; 10 μg/ml leupeptin; and 5 μg/ml aprotinin) and lysed at 4° C. for 15 minutes. Lysates were incubated for two hours with the indicated antibodies, and the antibody complexes precipitated with 20 μl of Gammabind (Amersham-Pharmacia; Piscataway, N.J.) for an additional hour. After washing the beads, bound proteins were solubilized in SDS-PAGE sample buffer. Western blot analysis was performed according to standard procedures.

[2] = tested on: Bcl-2 promoter; test: Bcl-2 promoter reporter assay in CHO cells; format: cell-based, Chinese hamster
Text: The entire CGI-147 open reading frame encodes a 27-kDa protein with no sequence similarity to other proteins. […] To denote this inhibitory transcriptional activity, the Clone-3 gene was denoted Bit1 for Bcl-2 inhibitor of transcription.

B1: Bit1: human Bit1 polypeptide of 179 residues (SEQ ID NO:2), pro-apoptotic, expressed in cells by transfection (protein, listed as Homo sapiens)
chain: MPSKSLVMEYLAHPSTLGLAVGVACGMCLGWSLRVCFGMLPKSKTSKTHTDTESEASILGDSGEYKMILVVRNDLKMGKGKVAAQCSHAAVSAYKQIQRRNPEMLKQWEYCGQPKVVVKAPDEETLIALLAHAKMLGLTVSLIQDAGRTQIAPGSQTVLGIGPGPADLIDKVTGHLKLY
- co-immunoprecipitation with AES [1]: confirmed interaction
- Bcl-2 promoter activity ([2]; CHO cells, 1 μg Bcl-2-luciferase reporter construct, 24 hours in culture): down-regulate
- expression of the Bcl-2 promoter construct ([2]; transfected into CHO cells): down-regulated
